Assay results: US20250376533A1 (FUTUREGEN BIOPHARMACEUTICAL BEIJING, published 2025)
Positions count from the first letter of the chain named. Names and notes keep the numbering of the source. Read-outs that look alike come from different tables or passages of the source. Each block holds one binder with its values, some of them ahead of it.

Columns and labels:
[1] = molecular target: T1, human CD40 antigen (ACROBiosystems) (human, UniProt P25942 21-193); assay: ELISA, coated antigen
T1 construct: Bought antigen coated on ELISA plates; construct not described
T1 sequence (P25942 21-193 limits assumed): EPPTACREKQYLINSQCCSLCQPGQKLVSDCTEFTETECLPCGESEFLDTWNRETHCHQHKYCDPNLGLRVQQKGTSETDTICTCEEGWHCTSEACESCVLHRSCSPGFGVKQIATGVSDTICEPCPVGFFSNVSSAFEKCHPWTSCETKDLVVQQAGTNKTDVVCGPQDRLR
Protocol: (§1) The binding ability of bispecific antibody to human PD-L1 and human CD40, as well as the species specificity, was detected using an enzyme-linked immunosorbent assay (ELISA). The specific method is as follows: human PD-L1, cynomolgus PD-L1, rat PD-L1, mouse PD-L1, human CD40, cynomolgus CD40, rat CD40, and mouse CD40 antigens (all purchased from ACROBiosystems) were coated with 1 μg/mL carbonate buffer (pH=9.6) in an ELISA plate at 100 μL per well, followed by incubation at 4° C. overnight. The wells were washed 5 times with PBST. 300 μL/well of PBST containing 1% BSA was added to block the wells, and the plate was incubated at room temperature for 1 hour. The wells were washed 5 times with PBST. […] The wells were washed 5 times with PBST. […] The wells were washed 5 times with PBST. Colorimetric substrate TMB was added at 100 μL per well and allowed to develop color at room temperature for 10 minutes, followed by the addition of 1 M sulfuric acid to terminate the reaction. The OD_{450 nm} was read on a microplate reader to analyze the results, and the EC₅₀ was calculated using a 4-parameter fit binding curve.
(§2) These bispecific antibodies are not able to bind to rat PD-L1 and CD40 or mouse PD-L1 and CD40.

[2] = molecular target: T2, cynomolgus CD40 antigen (ACROBiosystems) (cynomolgus, UniProt G7PG38 21-193); assay: ELISA, coated antigen
T2 construct: Bought antigen coated on ELISA plates; construct not described
Protocol: as §1, §2

[3] = molecular target: T3, rat CD40 antigen (ACROBiosystems) (rat, UniProt A6JXD6 20-193); assay: ELISA, coated antigen
T3 construct: Bought antigen coated on ELISA plates; construct not described
T3 sequence: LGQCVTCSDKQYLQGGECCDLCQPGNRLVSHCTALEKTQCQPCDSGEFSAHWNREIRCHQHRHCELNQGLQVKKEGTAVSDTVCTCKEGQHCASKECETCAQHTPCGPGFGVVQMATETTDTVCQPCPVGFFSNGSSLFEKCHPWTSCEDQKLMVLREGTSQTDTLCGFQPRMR
Protocol: as §1, §2

[4] = molecular target: T4, mouse CD40 antigen (ACROBiosystems) (mouse, UniProt P27512 24-193, limits assumed); assay: ELISA, coated antigen
T4 construct: Bought antigen coated on ELISA plates; construct not described
T4 sequence (P27512 24-193 limits assumed): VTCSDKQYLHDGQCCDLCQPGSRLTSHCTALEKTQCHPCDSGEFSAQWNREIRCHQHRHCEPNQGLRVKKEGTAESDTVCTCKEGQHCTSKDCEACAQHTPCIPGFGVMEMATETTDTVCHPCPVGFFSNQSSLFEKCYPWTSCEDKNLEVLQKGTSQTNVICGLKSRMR
Protocol: as §1, §2

[5] = molecular target: T5, human PD-L1 antigen (ACROBiosystems) (human, UniProt Q9NZQ7 19-238); assay: ELISA, coated antigen
T5 construct: Bought antigen coated on ELISA plates
T5 sequence (Q9NZQ7 19-238 limits assumed): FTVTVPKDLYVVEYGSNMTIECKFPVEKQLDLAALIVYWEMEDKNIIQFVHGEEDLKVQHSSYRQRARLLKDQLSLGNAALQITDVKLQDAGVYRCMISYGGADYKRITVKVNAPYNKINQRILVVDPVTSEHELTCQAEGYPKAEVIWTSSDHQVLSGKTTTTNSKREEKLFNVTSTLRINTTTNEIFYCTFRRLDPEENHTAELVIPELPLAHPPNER
Protocol: as §1, §2

[6] = molecular target: T6, cynomolgus PD-L1 antigen (ACROBiosystems) (cynomolgus, UniProt G7PSE7 19-238); assay: ELISA, coated antigen
T6 construct: Bought antigen coated on ELISA plates; construct not described
T6 sequence (G7PSE7 entry or part of it): as the sequence (Q9NZQ7 19-238 limits assumed) above, with A33T, A34S, S62N, R68Q, Q82R, F173L, T185A, T192I, H215L counted along it
Protocol: as §1, §2

[7] = molecular target: T7, rat PD-L1 antigen (ACROBiosystems) (rat, UniProt D4AE25 19-239); assay: ELISA, coated antigen
T7 construct: Bought antigen coated on ELISA plates; construct not described
T7 sequence (D4AE25 entry or part of it limits assumed): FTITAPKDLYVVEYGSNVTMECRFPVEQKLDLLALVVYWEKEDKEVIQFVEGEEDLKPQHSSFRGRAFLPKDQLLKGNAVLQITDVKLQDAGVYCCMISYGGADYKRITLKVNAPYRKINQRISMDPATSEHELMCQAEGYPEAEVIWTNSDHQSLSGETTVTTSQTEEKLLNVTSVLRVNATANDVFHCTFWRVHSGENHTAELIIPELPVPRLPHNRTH
Protocol: as §1, §2

[8] = molecular target: T8, mouse PD-L1 antigen (ACROBiosystems) (mouse, UniProt Q9EP73 19-239); assay: ELISA, coated antigen
T8 construct: Bought antigen coated on ELISA plates; construct not described
T8 sequence (Q9EP73 19-239 limits assumed): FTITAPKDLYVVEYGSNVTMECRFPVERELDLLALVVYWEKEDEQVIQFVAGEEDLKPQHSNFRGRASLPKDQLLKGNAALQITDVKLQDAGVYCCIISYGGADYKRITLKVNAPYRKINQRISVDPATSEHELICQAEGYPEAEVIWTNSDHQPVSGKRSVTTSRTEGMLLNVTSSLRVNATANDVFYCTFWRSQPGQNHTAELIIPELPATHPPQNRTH
Protocol: as §1, §2

[9] = molecular target: T9, CD40 on HEK-Blue CD40L cells (InvivoGen) (UniProt P25942 21-277, limits assumed); assay: cell-based or functional assay
T9 sequence (P25942 21-277 limits assumed): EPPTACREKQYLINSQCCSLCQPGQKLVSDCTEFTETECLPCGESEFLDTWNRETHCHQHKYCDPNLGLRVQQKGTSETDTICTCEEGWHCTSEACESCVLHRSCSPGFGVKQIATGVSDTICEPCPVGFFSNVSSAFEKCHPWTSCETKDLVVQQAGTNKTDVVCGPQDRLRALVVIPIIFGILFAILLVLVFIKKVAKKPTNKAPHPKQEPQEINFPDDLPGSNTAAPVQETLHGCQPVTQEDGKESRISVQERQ

[10] = molecular target: T9, CD40 on HEK-Blue CD40L cells (InvivoGen); assay: flow cytometry, competition with 10 nM Biotin-CD40L on HEK-Blue CD40L cells
Protocol: The blocking effect of bispecific antibodies on CD40/CD40L binding was tested using HEK-Blue CD40L cells that highly express CD40. The specific method is as follows: HEK-Blue CD40L cells were collected and resuspended in pre-cooled PBS containing 2% FBS at a density of 1E7 cells/mL, and then added to a 96-well plate at 50 μL per well, i.e., 5E5 cells/well. Biotin-CD40L (FutureGen Biopharmaceutical) and serially diluted bispecific antibody were then added at 50 μL per well, with a final concentration of Biotin-CD40L of 10 nM, and the plate was incubated at 4° C. for 1 hour. The wells were washed twice with pre-cooled PBS. Streptavidin-PE (BioLegend, Cat. No. 405203) diluted in pre-cooled PBS containing 2% FBS was added, and the plate was incubated at 4° C. for 30 minutes. The wells were washed twice with pre-cooled PBS. The cells were then resuspended in pre-cooled PBS containing 2% FBS and assayed by flow cytometry.

[11] = molecular target: T1, human CD40 antigen (ACROBiosystems); assay: bridging ELISA: coated human CD40, serially diluted bispecific antibody, detection with biotin-labeled human PD-L1 and streptavidin-HRP, OD450
Protocol: Antigen human CD40 (purchased from ACROBiosystems) was coated with 1 μg/mL carbonate buffer (pH=9.6) in an ELISA plate at 100 μL per well, followed by incubation at 4° C. overnight. The wells were washed 5 times with PBST. 300 μL/well of PBST containing 1% BSA was added to block the wells, and the plate was incubated at room temperature for 1 hour. The wells were washed 5 times with PBST. […] The wells were washed 5 times with PBST. Biotin-labeled human PD-L1 (FutureGen Biopharmaceutical) diluted with PBST containing 1% BSA was added at 100 μL per well, and the plate was incubated at room temperature for 1 hour. The wells were washed 5 times with PBST. Streptavidin-HRP (BioLegend, Cat. No. 405210) diluted with PBST containing 1% BSA was added at 100 μL per well, and the plate was incubated at room temperature for 30 minutes. Colorimetric substrate TMB was added at 100 μL per well and allowed to develop color at room temperature for 10 minutes, followed by the addition of 1 M sulfuric acid to terminate the reaction. The OD_[…] was read on a microplate reader to analyze the results, and the EC₅₀ was calculated using a 4-parameter fit binding curve.

[12] = molecular target: T5, human PD-L1 antigen (ACROBiosystems); assay: ELISA, coated antigen; remark: listed apart in the source
Protocol: as §1, with “monoclonal” for “bispecific”, “PD-L1,” for “PD-L1 and human CD40,”, “PD-L1,” for “PD-L1, mouse PD-L1, human CD40, cynomolgus CD40, rat CD40,”, “PD-L1” for “CD40”
(§3) These monoclonal antibodies are not able to bind to rat PD-L1 or mouse PD-L1.

[13] = molecular target: T6, cynomolgus PD-L1 antigen …; assay: ELISA, coated antigen; remark: listed apart in the source
Protocol: as §1, with “monoclonal” for “bispecific”, “PD-L1,” for “PD-L1 and human CD40,”, “PD-L1,” for “PD-L1, mouse PD-L1, human CD40, cynomolgus CD40, rat CD40,”, “PD-L1” for “CD40”
as §3

[14] = molecular target: T7, rat PD-L1 antigen (ACROBiosystems); assay: ELISA, coated antigen; remark: listed apart in the source
Protocol: as §1, with “monoclonal” for “bispecific”, “PD-L1,” for “PD-L1 and human CD40,”, “PD-L1,” for “PD-L1, mouse PD-L1, human CD40, cynomolgus CD40, rat CD40,”, “PD-L1” for “CD40”
as §3

[15] = molecular target: T8, mouse PD-L1 antigen (ACROBiosystems); assay: ELISA, coated antigen; remark: listed apart in the source
Protocol: as §1, with “monoclonal” for “bispecific”, “PD-L1,” for “PD-L1 and human CD40,”, “PD-L1,” for “PD-L1, mouse PD-L1, human CD40, cynomolgus CD40, rat CD40,”, “PD-L1” for “CD40”
as §3

[16] = molecular target: T5, human PD-L1 antigen (ACROBiosystems); assay: BLI (Gator), antibody captured on PA probe, human PD-L1 in solution
Protocol: The interaction between monoclonal antibodies and antigens was detected using Gator, a label-free biomolecular interaction analyzer based on the principle of biolayer interferometry (BLI). The specific method is as follows: monoclonal antibody was diluted to 50 nM and added to a probe plate using a PA probe, allowing the monoclonal antibody to be captured by the PA probe. Human PD-L1, an antigen serially diluted starting from 200 nM, was then added for interaction with the […] captured by the PA probe. The interaction was analyzed by detecting the signal change of the reflected interference spectrum on the surface of the probe, and the binding kinetic constants of the antibody were finally calculated.

B3: anti-PD-L1/CD40 bispecific antibody 1655 (bispecific antibody, human IgG2, kappa)
light: DIQMTQSPSSLSASVGDRVTITCRASQTISSYLNWYQQKPGKAPKLLIYYTSTLQSGVPSRFSGSGSGTDYTLTISSLQPEDFATYYCQQGNAYPWTFGGGTKVEIKRTVAAPSVFIFPPSDEQLKSGTASVVCLLNNFYPREAKVQWKVDNALQSGNSQESVTEQDSKDSTYSLSSTLTLSKADYEKHKVYACEVTHQGLSSPVTKSFNRGEC
heavy: EVQLVESGGGLVQPGGSLRLSCAASGFTFSNYYMSWVRQAPGKGLEWVGFIRNKANAYTTEYAASVKGRFTISRDNSKSTLYLQMNSLRAEDTAVYYCARYGGLKIGWYFDLWGQGTLVTVSSASTKGPSVFPLAPCSRSTSESTAALGCLVKDYFPEPVTVSWNSGALTSGVHTFPAVLQSSGLYSLSSVVTVPSSNFGTQTYTCNVDHKPSNTKVDKTVERKCCVECPPCPAPPVAGPSVFLFPPKPKDTLMISRTPEVTCVVVDVSHEDPEVQFNWYVDGVEVHNAKTKPREEQFNSTFRVVSVLTVVHQDWLNGKEYKCKVSNKGLPAPIEKTISKTKGQPREPQVYTLPPSREEMTKNQVSLTCLVKGFYPSDIAVEWESNGQPENNYKTTPPMLDSDGSFFLYSKLTVDKSRWQQGNVFSCSVMHEALHNHYTQKSLSLSPGGGGGSGGGGSGGGGSGEVQLVESGGGLVQPGGSLRLSCAASGFTFDYYTQCWFRQAPGKEREWVSCISSSEGSTYYADSVKGRFTISRDNSKNTVYLQMNSLKTEDTAVYYCAARKGGPLTIENFFDYWGQGTQVTVSS
notes: First polypeptide chain = anti-CD40 light chain; second polypeptide chain = anti-CD40 heavy chain with the 1541 VHH joined to its C-terminus by a G4S linker
EC50 [1]: 0.025 nM | EC50 [2]: 0.006 nM | binding result [3]: no binding | binding result [4]: no binding | EC50 [5]: 0.039 nM | EC50 [6]: 0.023 nM | binding result [7]: no binding | binding result [8]: no binding | CD40 agonistic activity (A)/(B) Ratio, EC50 without over with CHO/PD-L1 [9]: 25.3 | CD40 agonistic activity EC50 (nM) with CHO/PD-L1 (B), SEAP reporter [9]: 0.027 nM | CD40 agonistic activity EC50 (nM) without CHO/PD-L1 (A), SEAP reporter [9]: 0.686 nM | IC50 [10]: 8.63 nM | EC50 [11]: 0.039 nM

B4: anti-PD-L1/CD40 bispecific antibody 1652 (bispecific antibody, human IgG2, kappa)
light: B3 light with T28D, S30R, S31N, T53R, L54R, Q55D, Y87F, N92K, A93T, Y94L
heavy: B3 heavy with N31D, S79N, K105R, I106Q, L112V
notes: as for B3
EC50 [1]: 0.021 nM | EC50 [2]: 0.017 nM | binding result [3]: no binding | binding result [4]: no binding | EC50 [5]: 0.035 nM | EC50 [6]: 0.018 nM | binding result [7]: no binding | binding result [8]: no binding | CD40 agonistic activity (A)/(B) Ratio, EC50 without over with CHO/PD-L1 [9]: 4.1 | CD40 agonistic activity EC50 (nM) with CHO/PD-L1 (B), SEAP reporter [9]: 0.022 nM | CD40 agonistic activity EC50 (nM) without CHO/PD-L1 (A), SEAP reporter [9]: 0.092 nM | IC50 [10]: 0.852 nM | EC50 [11]: 0.032 nM

B5: anti-PD-L1 monoclonal antibody 1102 (antibody, human IgG1, V domains shown)
VH: EVQLVESGGGLVQPGGSLRLSCAASGFTFDYYTQCWFRQAPGKEREWVSCISSSEGSTYYADSVKGRFTISRDNAKNTVYLQMNSLRAEDTAVYYCAARKGGPLTIENFFDYWGQGTQVTVSS
EC50 [12]: 0.013 nM | EC50 [13]: 0.013 nM | binding result [14]: no binding | binding result [15]: no binding | Kd [16]: 4.41 nM | koff [16]: 0.00451 s⁻¹ | kon [16]: 1.02e+06 M⁻¹ s⁻¹

Continued by falling EC50 [1], values first:

EC50 [1]: 0.021 nM | EC50 [2]: 0.019 nM | binding result [3]: no binding | binding result [4]: no binding | EC50 [5]: 0.034 nM | EC50 [6]: 0.016 nM | binding result [7]: no binding | binding result [8]: no binding | CD40 agonistic activity (A)/(B) Ratio, EC50 without over with CHO/PD-L1 [9]: 28 | CD40 agonistic activity EC50 (nM) with CHO/PD-L1 (B), SEAP reporter [9]: 0.02 nM | CD40 agonistic activity EC50 (nM) without CHO/PD-L1 (A), SEAP reporter [9]: 0.556 nM | IC50 [10]: 3.16 nM | EC50 [11]: 0.039 nM
B1: anti-PD-L1/CD40 bispecific antibody 1609 (bispecific antibody, human IgG2, kappa)
light: B3 light
heavy: B3 heavy with A57G
notes: as for B3

EC50 [1]: 0.013 nM | EC50 [2]: 0.013 nM | binding result [3]: no binding | binding result [4]: no binding | EC50 [5]: 0.031 nM | EC50 [6]: 0.045 nM | binding result [7]: no binding | binding result [8]: no binding | CD40 agonistic activity (A)/(B) Ratio, EC50 without over with CHO/PD-L1 [9]: 23.2 | CD40 agonistic activity EC50 (nM) with CHO/PD-L1 (B), SEAP reporter [9]: 0.027 nM | CD40 agonistic activity EC50 (nM) without CHO/PD-L1 (A), SEAP reporter [9]: 0.633 nM | IC50 [10]: 7.7 nM | EC50 [11]: 0.026 nM
B2: anti-PD-L1/CD40 bispecific antibody 1654 (bispecific antibody, human IgG2, kappa)
light: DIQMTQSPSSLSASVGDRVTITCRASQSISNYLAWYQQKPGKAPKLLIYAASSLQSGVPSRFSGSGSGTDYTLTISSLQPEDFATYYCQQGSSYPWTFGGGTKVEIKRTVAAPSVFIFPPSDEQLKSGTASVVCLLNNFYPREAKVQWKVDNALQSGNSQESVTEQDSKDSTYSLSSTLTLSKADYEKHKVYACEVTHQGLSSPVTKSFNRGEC
heavy: B3 heavy with S87R, I106V
notes: as for B3
